From IntAct's records for PubMed 21102411

B1: Peroxisomal biogenesis factor 19 (Homo sapiens), P40855 (parent)
chain: MAAAEEGCSVGAEADRELEELLESALDDFDKAKPSPAPPSTTTAPDASGPQKRSPGDTAKDALFASQEKFFQELFDSELASQATAEFEKAMKELAEEEPHLVEQFQKLSEAAGRVGSDMTSQQEFTSCLKETLSGLAKNATDLQNSSMSEEELTKAMEGLGMDEGDGEGNILPIMQSIMQNLLSKDVLYPSLKEITEKYPEWLQSHRESLPPEQFEKYQEQHSVMCKICEQFEAETPTDSETTQKARFEMVLDLMQQLQDLGHPPKELAGEMPPGLNFDLDALNLSGPPGASGEQCLIM
partner: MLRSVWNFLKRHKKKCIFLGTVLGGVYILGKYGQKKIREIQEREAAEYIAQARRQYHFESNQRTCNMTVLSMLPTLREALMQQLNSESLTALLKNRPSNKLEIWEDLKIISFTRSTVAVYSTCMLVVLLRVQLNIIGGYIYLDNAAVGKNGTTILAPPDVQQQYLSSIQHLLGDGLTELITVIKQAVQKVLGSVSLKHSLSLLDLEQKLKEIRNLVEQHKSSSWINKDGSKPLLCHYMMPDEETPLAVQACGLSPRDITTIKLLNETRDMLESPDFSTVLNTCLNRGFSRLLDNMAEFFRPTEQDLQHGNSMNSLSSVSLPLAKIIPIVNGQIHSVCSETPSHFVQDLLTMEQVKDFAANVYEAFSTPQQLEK
B2: Peroxisomal biogenesis factor 19 (Homo sapiens), P40855 (parent)
chain: B1 chain
partner: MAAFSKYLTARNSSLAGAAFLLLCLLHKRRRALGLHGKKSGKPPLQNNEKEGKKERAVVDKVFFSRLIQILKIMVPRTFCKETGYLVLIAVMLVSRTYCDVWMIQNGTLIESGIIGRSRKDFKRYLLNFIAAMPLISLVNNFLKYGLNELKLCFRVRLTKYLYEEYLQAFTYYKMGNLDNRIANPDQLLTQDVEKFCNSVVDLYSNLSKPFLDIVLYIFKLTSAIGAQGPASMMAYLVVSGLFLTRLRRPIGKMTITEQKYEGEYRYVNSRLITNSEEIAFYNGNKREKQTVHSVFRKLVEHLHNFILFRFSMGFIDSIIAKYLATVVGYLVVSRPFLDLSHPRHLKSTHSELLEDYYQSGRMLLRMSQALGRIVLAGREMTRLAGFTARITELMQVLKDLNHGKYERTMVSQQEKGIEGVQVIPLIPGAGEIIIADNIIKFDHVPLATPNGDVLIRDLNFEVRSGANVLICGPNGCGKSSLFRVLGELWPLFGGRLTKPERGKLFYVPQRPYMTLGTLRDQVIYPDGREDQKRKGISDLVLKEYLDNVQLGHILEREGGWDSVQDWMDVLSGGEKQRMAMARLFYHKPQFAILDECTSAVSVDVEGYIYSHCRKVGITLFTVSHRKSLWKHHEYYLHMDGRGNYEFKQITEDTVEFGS

Variants of: B1
Conditions: with pex3_human PEX3, P56589

| Variant | effect of a mutation on the interaction |
| --- | --- |
| MAAAEEGCSVGAEADREAEELLESALDDFDKAKPSPAPPSTTTAPDASGPQKRSPGDTAKDALFASQEKFFQELFDSELASQATAEFEKAMKELAEEEPHLVEQFQKLSEAAGRVGSDMTSQQEFTSCLKETLSGLAKNATDLQNSSMSEEELTKAMEGLGMDEGDGEGNILPIMQSIMQNLLSKDVLYPSLKEITEKYPEWLQSHRESLPPEQFEKYQEQHSVMCKICEQFEAETPTDSETTQKARFEMVLDLMQQLQDLGHPPKELAGEMPPGLNFDLDALNLSGPPGASGEQCLIM [L18A] | disrupting interaction |

Variants of: B1
Conditions: with pex3_human PEX3, P56589
Remark: another data set of the same source

| Variant | effect of a mutation on the interaction |
| --- | --- |
| MAAAEEGCSVGAEADREAEELLESALDDFDKAKPSPAPPSTTTAPDASGPQKRSPGDTAKDALFASQEKFFQELFDSELASQATAEFEKAMKELAEEEPHLVEQFQKLSEAAGRVGSDMTSQQEFTSCLKETLSGLAKNATDLQNSSMSEEELTKAMEGLGMDEGDGEGNILPIMQSIMQNLLSKDVLYPSLKEITEKYPEWLQSHRESLPPEQFEKYQEQHSVMCKICEQFEAETPTDSETTQKARFEMVLDLMQQLQDLGHPPKELAGEMPPGLNFDLDALNLSGPPGASGEQCLIM [L18A] | decreasing interaction |

Variants of: B1
Conditions: with pex3_human PEX3, P56589
Remark: another data set of the same source

| Variant | effect of a mutation on the interaction |
| --- | --- |
| MAAAEEGCSVGAEADRELEELAESALDDFDKAKPSPAPPSTTTAPDASGPQKRSPGDTAKDALFASQEKFFQELFDSELASQATAEFEKAMKELAEEEPHLVEQFQKLSEAAGRVGSDMTSQQEFTSCLKETLSGLAKNATDLQNSSMSEEELTKAMEGLGMDEGDGEGNILPIMQSIMQNLLSKDVLYPSLKEITEKYPEWLQSHRESLPPEQFEKYQEQHSVMCKICEQFEAETPTDSETTQKARFEMVLDLMQQLQDLGHPPKELAGEMPPGLNFDLDALNLSGPPGASGEQCLIM [L22A] | disrupting interaction |

Variants of: B1
Conditions: with pex3_human PEX3, P56589
Remark: another data set of the same source

| Variant | effect of a mutation on the interaction |
| --- | --- |
| MAAAEEGCSVGAEADRELEELLESALDAFDKAKPSPAPPSTTTAPDASGPQKRSPGDTAKDALFASQEKFFQELFDSELASQATAEFEKAMKELAEEEPHLVEQFQKLSEAAGRVGSDMTSQQEFTSCLKETLSGLAKNATDLQNSSMSEEELTKAMEGLGMDEGDGEGNILPIMQSIMQNLLSKDVLYPSLKEITEKYPEWLQSHRESLPPEQFEKYQEQHSVMCKICEQFEAETPTDSETTQKARFEMVLDLMQQLQDLGHPPKELAGEMPPGLNFDLDALNLSGPPGASGEQCLIM [D28A] | decreasing interaction |

Variants of: B1
Conditions: with pex3_human PEX3, P56589
Remark: another data set of the same source

| Variant | effect of a mutation on the interaction |
| --- | --- |
| MAAAEEGCSVGAEADRELEELLESALDDADKAKPSPAPPSTTTAPDASGPQKRSPGDTAKDALFASQEKFFQELFDSELASQATAEFEKAMKELAEEEPHLVEQFQKLSEAAGRVGSDMTSQQEFTSCLKETLSGLAKNATDLQNSSMSEEELTKAMEGLGMDEGDGEGNILPIMQSIMQNLLSKDVLYPSLKEITEKYPEWLQSHRESLPPEQFEKYQEQHSVMCKICEQFEAETPTDSETTQKARFEMVLDLMQQLQDLGHPPKELAGEMPPGLNFDLDALNLSGPPGASGEQCLIM [F29A] | disrupting interaction |

Variants of: B1
Conditions: with pex3_human PEX3, P56589
Remark: another data set of the same source

| Variant | effect of a mutation on the interaction |
| --- | --- |
| MAAAEEGCSVGAEADRELEEALESALDDFDKAKPSPAPPSTTTAPDASGPQKRSPGDTAKDALFASQEKFFQELFDSELASQATAEFEKAMKELAEEEPHLVEQFQKLSEAAGRVGSDMTSQQEFTSCLKETLSGLAKNATDLQNSSMSEEELTKAMEGLGMDEGDGEGNILPIMQSIMQNLLSKDVLYPSLKEITEKYPEWLQSHRESLPPEQFEKYQEQHSVMCKICEQFEAETPTDSETTQKARFEMVLDLMQQLQDLGHPPKELAGEMPPGLNFDLDALNLSGPPGASGEQCLIM [L21A] | disrupting interaction |

Variants of: B1
Conditions: with pex3_human PEX3, P56589
Remark: another data set of the same source

| Variant | effect of a mutation on the interaction |
| --- | --- |
| MAAAEEGCSVGAEADRELEEALESALDDFDKAKPSPAPPSTTTAPDASGPQKRSPGDTAKDALFASQEKFFQELFDSELASQATAEFEKAMKELAEEEPHLVEQFQKLSEAAGRVGSDMTSQQEFTSCLKETLSGLAKNATDLQNSSMSEEELTKAMEGLGMDEGDGEGNILPIMQSIMQNLLSKDVLYPSLKEITEKYPEWLQSHRESLPPEQFEKYQEQHSVMCKICEQFEAETPTDSETTQKARFEMVLDLMQQLQDLGHPPKELAGEMPPGLNFDLDALNLSGPPGASGEQCLIM [L21A] | decreasing interaction |

Variants of: B1
Conditions: with pex3_human PEX3, P56589
Remark: another data set of the same source

| Variant | effect of a mutation on the interaction |
| --- | --- |
| MAAAEEGCSVGAEADRELEELLESAADDFDKAKPSPAPPSTTTAPDASGPQKRSPGDTAKDALFASQEKFFQELFDSELASQATAEFEKAMKELAEEEPHLVEQFQKLSEAAGRVGSDMTSQQEFTSCLKETLSGLAKNATDLQNSSMSEEELTKAMEGLGMDEGDGEGNILPIMQSIMQNLLSKDVLYPSLKEITEKYPEWLQSHRESLPPEQFEKYQEQHSVMCKICEQFEAETPTDSETTQKARFEMVLDLMQQLQDLGHPPKELAGEMPPGLNFDLDALNLSGPPGASGEQCLIM [L26A] | decreasing interaction |

Variants of: B2
Conditions: with abcd3_human ABCD3, P28288

| Variant | effect of a mutation on the interaction |
| --- | --- |
| MAAAEEGCSVGAEADRELEELAESALDDFDKAKPSPAPPSTTTAPDASGPQKRSPGDTAKDALFASQEKFFQELFDSELASQATAEFEKAMKELAEEEPHLVEQFQKLSEAAGRVGSDMTSQQEFTSCLKETLSGLAKNATDLQNSSMSEEELTKAMEGLGMDEGDGEGNILPIMQSIMQNLLSKDVLYPSLKEITEKYPEWLQSHRESLPPEQFEKYQEQHSVMCKICEQFEAETPTDSETTQKARFEMVLDLMQQLQDLGHPPKELAGEMPPGLNFDLDALNLSGPPGASGEQCLIM [L22A] | disrupting interaction |

Variants of: B2
Conditions: with abcd3_human ABCD3, P28288
Remark: another data set of the same source

| Variant | effect of a mutation on the interaction |
| --- | --- |
| MAAAEEGCSVGAEADRELEELLESALDDADKAKPSPAPPSTTTAPDASGPQKRSPGDTAKDALFASQEKFFQELFDSELASQATAEFEKAMKELAEEEPHLVEQFQKLSEAAGRVGSDMTSQQEFTSCLKETLSGLAKNATDLQNSSMSEEELTKAMEGLGMDEGDGEGNILPIMQSIMQNLLSKDVLYPSLKEITEKYPEWLQSHRESLPPEQFEKYQEQHSVMCKICEQFEAETPTDSETTQKARFEMVLDLMQQLQDLGHPPKELAGEMPPGLNFDLDALNLSGPPGASGEQCLIM [F29A] | disrupting interaction |
